# In the supplement of paper PMC10567573:
# B1: SOAT1 (parent)
# chain: KSAAMLAVFAVSAVVHEYALAVCL
# B2: SEC22B (parent)
# chain: FPKKLAFAYLEDLHSEFDEQHGKK
# Variants of: B1
# Experiment: protein stability index of a GFP-peptide fusion (GPS, HEK-293T) (PSI 1-6); higher = more stable
# Conditions: c terminus: a fixed tail appended
# 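Note: lentivirally expressed fusions sorted by FACS into six bins by GFP to DsRed ratio, PSI derived from sequencing read proportions per bin multiplied by bin number.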
row,Variant,protein stability index
1,H16L,2.94
2,H16P,2.51
3,H16S,2.73
4,V8D,2.77
5,V8Y,3.31
6,V8P,3.28
7,V8W,3.01
8,V8A,2.89
9,V8I,1.62
10,V8N,3.98
11,V8H,3.18
12,V8T,3.11
13,V8K,2.31
14,V8S,3.28
15,V8C,2.43
16,A3K,2.88
17,A3S,2.25
18,A3Y,2.83
19,A3W,1.96
20,A3M,3.72
21,A3P,3.72
22,A3D,2.23
23,A3Q,3.47
24,A3I,3.19
25,A3H,3.8

row,Variant,protein stability index
1,A3T,2.06
2,A3G,2.25
3,A3V,1.5
4,Y18D,2.21
5,Y18P,2.23
6,Y18M,1.85
7,Y18W,3.5
8,Y18F,4.1
9,Y18Q,2.56
10,E17C,2.5
11,E17F,2.73
12,E17N,2.23
13,E17Q,3.61
14,E17G,1.39
15,E17T,3.21
16,V11R,2.94
17,V11C,2.8
18,V11D,3.09
19,V11Q,3.03
20,V11P,4.61
21,V11A,2.8
22,V11F,2.89
23,V11H,1.4
24,V11N,3.47

# Variants of: B2
# Experiment: as above
# Conditions: c terminus: a fixed tail appended
row,Variant,protein stability index
1,F17H,2.66
2,F17I,2.6
3,F17A,2.68
4,F17V,2.67
5,F17T,2.99
6,F17L,2.54
7,Q20A,2.23
8,Q20C,2.09
9,Q20L,2.54
10,Q20E,2.52
11,Q20R,2.67
12,Q20K,2.64
13,Q20W,2.46
14,Q20M,2.03
15,H14G,2.57
16,H14D,2.53
17,H14I,1.68
18,H14K,2.96
19,H14W,2.06
20,E19R,1.63
21,E19S,2.33
22,E19K,2.37
23,E19G,2.36
24,E19L,2.6

row,Variant,protein stability index
1,E19D,2.92
2,E19H,2.05
3,S15N,2.67
4,S15G,2.25
5,S15M,2.5
6,F7I,3.24
7,F7M,2.53
8,F7P,3.39
9,F7T,3.33
10,D12W,2.49
11,D12T,2.39
12,D12K,2.38
13,L10F,2.31
14,L10N,3.33
15,L10A,2.47
16,P2S,3.06
17,P2H,2.17
18,P2W,1.95
19,P2I,1.98
20,P2D,4.59
21,D18N,2.3
22,D18R,2.03
23,D18L,2.22
24,K4E,4.95

row,Variant,protein stability index
1,K4L,2.18
2,K4F,1.97
3,H21C,2.28
4,H21Q,2.66
5,H21A,2.93
6,H21K,2.55
7,H21P,2.41
8,H21M,2.69
9,L5N,2.65
10,L5F,2.17
11,L5M,1.84
12,A6Q,3.18
13,A6S,2.69
14,A6L,1.83
15,L13R,2.79
16,L13E,3.23
17,L13H,2.93
18,L13P,2.61
19,E11N,2.61
20,E11V,1.77
21,E11S,1.78
22,E11L,2.35
23,E11R,2.24
24,F1H,3.84

row,Variant,protein stability index
1,F1Q,4.51
2,A8K,2.91
3,A8S,3.06
4,A8T,2.64
5,A8Q,3.08
6,A8H,2.72
7,A8V,2.31
8,A8L,1.88
9,K3G,2.29
10,K3W,1.96
11,K3A,1.91
12,K3V,2.53
13,K3F,1.91
14,E16N,2.15
15,E16H,2.08
16,E16D,2.34
17,E16A,2.4
18,E16Y,1.56
19,E16Q,2.55
20,E16I,2.07
21,E16M,1.93
22,G22E,2.56
23,G22S,2.6
24,G22I,2.25

row,Variant,protein stability index
1,G22D,2.15
2,G22N,2.71
3,G22L,2.34
4,K24H,2.59
5,K24C,2.23
6,K24Q,2.9
7,K24R,2.9
8,K23S,2.7
9,K23M,2.25
10,K23G,2.27
11,K23L,2.53
12,K23C,2.3
13,K23P,2.33
14,K23T,1.81
15,K23I,2.66
16,K23R,2.34
17,K23Y,2.2
18,Y9T,2.5
19,Y9H,3.1
20,Y9P,2.9
21,Y9C,2.18
22,Y9N,3.67
